In patent publication US10487307B2, “Culture method for pluripotent stem cells” (FUJIFILM CORPORATION, priority 2013, dated 2019):

Experiments:
[1] = test system: iPS cells; experiment: Growth evaluation, number of cells after 3 days; assay type: cell-based, human; settings: 5,000 cells/well, sample 1 (RCP-1) = 100%
Procedure: By adding RCP-1 to RCP-11 and Human Recombinant Laminin-511 as control at the concentration shown in Table 9, samples 1 to 12 were prepared. The samples were seeded into a 96-well plate, onto which each of the polypeptides was adsorbed in the same manner as in <Cell adhesiveness evaluation 1>, at a ratio of 5,000 cells/well and cultured for 3 days in a CO2 incubator at 37° C. The number of cells after 3 days was calculated in the same manner as in <Cell adhesiveness evaluation 1>. In Table 9, the number of cells after 3 days is expressed as a ratio calculated by regarding the number of cells obtained by using the sample 1 as being 100%.

[2] = Aggregation after dialysis of purified polypeptide solution; assay type: physicochemical; parameters: key: G: The formation of an aggregate was not observed.; A: The formation of particles having a particle size of about 100 nm was observed.; B: The formation of an aggregation of particles having a particle size of equal to or greater than 1 mm was visually observed
Procedure: For RCP-1 to RCP-11, each of the purified polypeptide solutions was dialyzed using Slide-A-Lizer (3.5 K MWCO.). Basically, by using a dialysis buffer (PBS, 1.5 M NaCl, 0.5 M L-arginine, 1 mM EDTA, pH 7.4) as an outer dialysate, urea was removed by stepwise dialysis. The concentration of the end-product of dialysis was calculated from the absorbence at 280 nm by using NanoDrop (Thermo Fisher Scientific Inc.).
Whether or not aggregation was occurred was evaluated based on the scale of A, and B as shown below.
G: The formation of an aggregate was not observed.
A: The formation of particles having a particle size of about 100 nm was observed.
B: The formation of an aggregation of particles having a particle size of equal to or greater than 1 mm was visually observed.

[3] = test system: human iPS cells ("Tic"); experiment: Cell adhesiveness evaluation 1 (ALP activity of adhesive iPS cells); assay type: cell-based; settings: 30,000 cells/well, 24 hours, natural vitronectin (sample 15) = 100%, n=3
Procedure: The cell adhesiveness of human iPS cells (“Tic”: Cell No. JCRB 1331: from National Institute of Biomedical Innovation. [567-0085, 7-6-8 Asagi Saito Ibaraki-City Osaka]) with respect to the aforementioned polypeptides was evaluated in the following manner.
As feeder cells for retaining the human iPS cells, EmbryoMax (registered trademark) (early mouse embryonic fibroblasts: resistant to hygromycin, treated with mitomycin C, derived from C57/BL6, third passage) (Millipore Corporation) was used. By using DMEM (Invitrogen) and a 10% (v/v) fetal bovine serum medium, the feeder cells were cultured for 24 hours and attached to a T25 flask (Corning Incorporated). As a medium for the human iPS cells, the one obtained by adding FGF-2 (Sigma-Aldrich Co, LLC.) to a medium composed as shown in Table 6 at a final concentration of 10 ng/ml was used.
By using the aforementioned medium, the human iPS cells were retained and cultured in a 5% (v/v, the same unit will be used hereinafter) CO2 incubator at 37° C. Except for the day after the seeding of the iPS cells, the medium was replaced every day. The subculture operation was performed by exfoliating the cells by using Dispase II (neutral protease Grade II, Roche) and separating the cells in an appropriate size by a pipetting operation.
The iPS cells cultured as described above were treated with TrypLE Select (Invitrogen) for 5 minutes at 37° C. and separated into a single cell. After being subjected to centrifugation for 2 minutes at 300 rpm, the cells were collected and suspended in TeSR2 (a medium not containing a heterogeneous animal-derived component and a serum component, STEMCELL Technologies.) containing Y-27362 ((R)-(+)-trans-N-(4-pyridyl)-4-(1-aminoethyl)-cyclohexane carboxamide.2HCl.H2O, an Rho binding kinase inhibitor, Wako Pure Chemical Industries, Ltd.) at a final concentration of 10 μM.
Each of RCP-1 to RCP-11, RCP-21, RCP-25, and RCP-26 as control, human vitronectin (extracted from human serum, BD Biosciences), and recombinant laminin (rLaminin-5: Oriental Yeast Co., ltd. and Human Recombinant Laminin-511: BIOLAMINA AB) was added to and suspended in a predetermined buffer (a dialysis buffer used in <GRAVY value and aggregation characteristics> described above for RCP-1 to RCP-11, and PBS for RCP-21, RCP-25, human vitronectin, and recombinant laminin) at the concentration shown in Table 7, thereby preparing samples 1 to 17. The samples were added to the respective wells of a 96-well plate and adsorbed onto the plate by being held for 2 hours at 37° C.
Into the respective wells of the 96-well plate treated with the peptides, iPS cells were seeded at a cell density of 30,000 cells/well. After the cells were cultured for 24 hours, the nonadhesive cells were washed off with PBS, and only the adhesive cells were immobilized by using 4% (v/v) paraformaldehyde (Wako Pure Chemical Industries, Ltd.). By using an Attophos (registered trademark) AP Fluorescent Substrate System (Promega Corporation), the ALP activity was calculated, and from the calibration curve, the number of undifferentiated iPS cells having the ALP activity was calculated. In Table 7, the cell adhesion rate is expressed as a ratio calculated by regarding the cell adhesion rate obtained from the sample 15 using natural vitronectin as being 100%. n=3.

Row | Molecule | Number of cells after 3 days (%) ([1]; added amount 20 μg/cm^2) | Aggregation [2] | Cell adhesion rate (%) ([3]; added amount 20 μg/cm^2) | Number of cells after 3 days (%) ([1]; added amount 5 μg/cm^2) | Cell adhesion rate (%) ([3]; added amount 5 μg/cm^2)
1 | RCP-4: recombinant polypeptide for culture, SEQ ID NO: 18; vitronectin positions 1-55, 312-341, 342-373 (protein, Vitronectin-derived Recombinant Protein (RCP-4)) MDQESCKGRCTEGFNVDKKCQCDELCSYYQSCCTDYTAECKPQVTRGDVFTMPEDEQPQFISRDWHGVPGQVDAAMAGRIYISGMAPRPSLAKKQRFRHRNRKGYRSQRGHSRGRNQN | 120.7 | G | 100.1 ± 4.5 | – | –
2 | RCP-2: recombinant polypeptide for culture, SEQ ID NO: 16; vitronectin positions 1-55 and 342-373 (protein, Vitronectin-derived Recombinant Protein (RCP-2)) MDQESCKGRCTEGFNVDKKCQCDELCSYYQSCCTDYTAECKPQVTRGDVFTMPEDEPRPSLAKKQRFRHRNRKGYRSQRGHSRGRNQN | 81.7 | G | 98.7 ± 6.2 | – | –
3 | RCP-8: recombinant polypeptide for culture, SEQ ID NO: 22; vitronectin positions 1-55, 269-373, 374-379, C274S (protein, Vitronectin-derived Recombinant Protein (RCP-8), vitronectin positions 1-55, 269-373, 374-379, C274S) MDQESCKGRCTEGFNVDKKCQCDELCSYYQSCCTDYTAECKPQVTRGDVFTMPEDESQEESEGSSLSAVFEHFAMMQRDSWEDIFELLFWGRTSAGTRQPQFISRDWHGVPGQVDAAMAGRIYISGMAPRPSLAKKQRFRHRNRKGYRSQRGHSRGRNQNSRRPSR | – | A | – | 171.0 | 89.2 ± 1.4
4 | RCP-7: recombinant polypeptide for culture, SEQ ID NO: 21; vitronectin positions 1-55, 269-373, C274S (protein, Vitronectin-derived Recombinant Protein (RCP-7), vitronectin positions 1-55, 269-373, C274S) MDQESCKGRCTEGFNVDKKCQCDELCSYYQSCCTDYTAECKPQVTRGDVFTMPEDESQEESEGSSLSAVFEHFAMMQRDSWEDIFELLFWGRTSAGTRQPQFISRDWHGVPGQVDAAMAGRIYISGMAPRPSLAKKQRFRHRNRKGYRSQRGHSRGRNQN | – | A | – | 89.9 | 88.6 ± 8.1
5 | RCP-10: recombinant polypeptide for culture, SEQ ID NO: 24; vitronectin positions 1-55, 269-373, 374-399, C274S (protein, Vitronectin-derived Recombinant Protein (RCP-10), vitronectin positions 1-55, 269-373, 374-399, C274S) MDQESCKGRCTEGFNVDKKCQCDELCSYYQSCCTDYTAECKPQVTRGDVFTMPEDESQEESEGSSLSAVFEHFAMMQRDSWEDIFELLFWGRTSAGTRQPQFISRDWHGVPGQVDAAMAGRIYISGMAPRPSLAKKQRFRHRNRKGYRSQRGHSRGRNQNSRRPSRATWLSLFSSEESNLGANNYD | 101.9 | B (The formation of an aggregation of particles having a particle size of equal to or greater than 1 mm was visually observed.) | 93.0 ± 7.8 | – | –
6 | RCP-9: recombinant polypeptide for culture, SEQ ID NO: 23; vitronectin positions 1-55, 269-373, 374-389, C274S (protein, Vitronectin-derived Recombinant Protein (RCP-9), vitronectin positions 1-55, 269-373, 374-389, C274S) MDQESCKGRCTEGFNVDKKCQCDELCSYYQSCCTDYTAECKPQVTRGDVFTMPEDESQEESEGSSLSAVFEHFAMMQRDSWEDIFELLFWGRTSAGTRQPQFISRDWHGVPGQVDAAMAGRIYISGMAPRPSLAKKQRFRHRNRKGYRSQRGHSRGRNQNSRRPSRATWLSLFSSE | 105.8 | B (The formation of an aggregation of particles having a particle size of equal to or greater than 1 mm was visually observed.) | 95.5 ± 10.2 | – | –
7 | RCP-6: recombinant polypeptide for culture, SEQ ID NO: 20; vitronectin positions 1-55, 269-459, C274S (protein, Vitronectin-derived Recombinant Protein (RCP-6), vitronectin positions 1-55, 269-459, C274S) MDQESCKGRCTEGFNVDKKCQCDELCSYYQSCCTDYTAECKPQVTRGDVFTMPEDESQEESEGSSLSAVFEHFAMMQRDSWEDIFELLFWGRTSAGTRQPQFISRDWHGVPGQVDAAMAGRIYISGMAPRPSLAKKQRFRHRNRKGYRSQRGHSRGRNQNSRRPSRATWLSLFSSEESNLGANNYDDYRMDWLVPATSEPIQSVFFFSGDKYYRVNLRTRRVDTVDPPYPRSIAQYWLGSPAPGHL | 70.5 | A | 92.8 ± 4.4 | – | –
8 | RCP-3: recombinant polypeptide for culture, SEQ ID NO: 17; vitronectin positions 1-55, 322-341, 342-373 (protein, Vitronectin-derived Recombinant Protein (RCP-3)) MDQESCKGRCTEGFNVDKKCQCDELCSYYQSCCTDYTAECKPQVTRGDVFTMPEDEGVPGQVDAAMAGRIYISGMAPRPSLAKKQRFRHRNRKGYRSQRGHSRGRNQN | 109.7 | G | 106.1 ± 4.5 | – | –
